In patent US20200399369A1 (Sanofi, published 2020):

T1: Human CD3 (human)
T1 chain: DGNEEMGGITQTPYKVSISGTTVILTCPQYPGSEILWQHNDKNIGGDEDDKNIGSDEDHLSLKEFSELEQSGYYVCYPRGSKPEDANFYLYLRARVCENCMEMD


What was measured:
Human CD3 = target: T1, Human CD3; test: ELISA, antigen-coated plate
Procedure: (§1) Binding affinities to each target antigen by the CD38/CD28×CD3 T cell engagers were measured by ELISA. Briefly, each antigen was used to coat the 96-well Immuno Plate (Thermo Fisher Scientific) overnight at 4° C. using 200 ng/well in PBS (pH7.4) of each antigen. The coated plate was blocked using 5% skim milk+2% BSA in PBS for one hour at RT, followed by washing with PBS+0.25% Tween 20 three times (Aqua Max 400, Molecular Devices). Serial dilution of antibodies (trispecific and control Abs) were prepared and added onto the ELISA plates (100 μl/well in duplicate), incubated at room temperature (RT) for one hour, followed by washing 5 times with PBS+0.25% Tween 20. […] The reaction was terminated by adding 50 μl 1M H₂SO₄, and OD450 was measured using SpectraMax M5 (Molecular Devices) and analyzed using SoftMax Pro6.3 software (Molecular Devices). The final data was transferred to GraphPad Prism software (GraphPad Software, CA, USA), and plotted. EC50 was calculated using the same software.
(§2) The binding affinities of selected CD38/CD28sup×CD3mid_ENLQ DKTHT IgG4 FALA trispecific antibodies with alternative anti-CD38 binding domains for human CD3, human CD28, human CD38 and cynomolgus monkey CD38 were then determined by ELISA as described above.

Human CD28 = target: T2, Human CD28 (human, UniProt P10747 19-152, limits assumed); test: ELISA, antigen-coated plate
T2 construct: also called hCD28
Procedure: as §1, §2

human CD38 = target: T3, human CD38 (human, UniProt P28907 43-300, limits assumed); test: ELISA, antigen-coated plate
T3 construct: also called hCD38; huCD38
Procedure: as §1, §2

cynomolgus monkey CD38 = target: T4, cynomolgus monkey CD38 (cynomolgus monkey, UniProt Q5VAN0 44-301, limits assumed); test: ELISA, antigen-coated plate
T4 construct: also called Cyno CD38; cynoCD38
Procedure: as §1, §2

[1] = target: T5, human CD38 on tumor cell lines NCI-H929 (CD38+/CD28+) and OCI-LY19 (CD38+/CD28-) (human, UniProt P28907 1-300); test: cell-based or functional assay
Human CD38-His = target: T6, Human CD38-His (human, UniProt P28907 43-300, limits assumed); test: SPR (BIACORE 3000), capture format, 1:1 Langmuir model
T6 construct: Bought antigen; also called human CD38 (SPR antigen); not shown: His tag

[2] = target: T5, human CD38 on tumor cell lines NCI-H929 …; test: cell-based or functional assay; remark: listed apart in the source

Row | Binder | EC50 (Human CD3) | EC50 (Human CD28) | EC50 (human CD38) | EC50 (cynomolgus monkey CD38) | EC50 of in vitro killing of NCI-H929 (CD38+/CD28+) cells, With Dara [1] | EC50 of in vitro killing of NCI-H929 (CD38+/CD28+) cells, With human IgG1 [1] | Kd (Human CD38-His) | koff (Human CD38-His) | kon (Human CD38-His) | EC50 of in vitro killing of OCI-LY19 (CD38+/CD28-) cells, With Dara [2] | EC50 of in vitro killing of OCI-LY19 (CD38+/CD28-) cells, With human IgG1 [2]
1 | CD38hhy1370/CD28sup x CD3mid_ENLQ DKTHT IgG4 FALA (other, Trispecific antibody; also called BP # 9) light 1: DIVMTQTPLSLSVTPGQPASISCKSSQSLVHENLQTYLSWYLQKPGQSPQSLIYKVSNRFSGVPDRFSGSGSGTDFTLKISRVEAEDVGVYYCGQGTQYPFTFGSGTKVEIKDKTHTDIQMTQSPSSLSASVGDRVTITCQASQNIYVWLNWYQQKPGKAPKLLIYKASNLHTGVPSRFSGSGSGTDFTLTISSLQPEDIATYYCQQGQTYPYTFGQGTKLEIKDKTHTRTVAAPSVFIFPPSDEQLKSGTASVVCLLNNFYPREAKVQWKVDNALQSGNSQESVTEQDSKDSTYSLSSTLTLSKADYEKHKVYACEVTHQGLSSPVTKSFNRGEC heavy 1: QVQLVQSGAEVVKPGASVKVSCKASGYTFTSYYIHWVRQAPGQGLEWIGSIYPGNVNTNYAQKFQGRATLTVDTSISTAYMELSRLRSDDTAVYYCTRSHYGLDWNFDVWGKGTTVTVSSDKTHTQVQLVESGGGVVQPGRSLRLSCAASGFTFTKAWMHWVRQAPGKQLEWVAQIKDKSNSYATYYADSVKGRFTISRDDSKNTLYLQMNSLRAEDTAVYYCRGVYYALSPFDYWGQGTLVTVSSDKTHTASTKGPSVFPLAPCSRSTSESTAALGCLVKDYFPEPVTVSWNSGALTSGVHTFPAVLQSSGLYSLSSVVTVPSSSLGTKTYTCNVDHKPSNTKVDKRVESKYGPPCPPCPAPEAAGGPSVFLFPPKPKDTLMISRTPEVTCVVVDVSQEDPEVQFNWYVDGVEVHNAKTKPREEQFNSTYRVVSVLTVLHQDWLNGKEYKCKVSNKGLPSSIEKTISKAKGQPREPQVCTLPPSQEEMTKNQVSLSCAVKGFYPSDIAVEWESNGQPENNYKTTPPVLDSDGSFFLVSKLTVDKSRWQEGNVFSCSVMHEALHNHYTQKSLSLSLG heavy 2: QVQLVESGGGVVQPGRSLRLSCAASGFTFSSYGMHWVRQAPGKGLEWVAVIWYDGSNKYYADSVKGRFTISGDNSKNTLYLQMNSLRAEDTAVYYCARMFRGAFDYWGQGTLVTVSSASTKGPSVFPLAPCSRSTSESTAALGCLVKDYFPEPVTVSWNSGALTSGVHTFPAVLQSSGLYSLSSVVTVPSSSLGTKTYTCNVDHKPSNTKVDKRVESKYGPPCPPCPAPEAAGGPSVFLFPPKPKDTLMISRTPEVTCVVVDVSQEDPEVQFNWYVDGVEVHNAKTKPREEQFNSTYRVVSVLTVLHQDWLNGKEYKCKVSNKGLPSSIEKTISKAKGQPREPQVYTLPPCQEEMTKNQVSLWCLVKGFYPSDIAVEWESNGQPENNYKTTPPVLDSDGSFFLYSKLTVDKSRWQEGNVFSCSVMHEALHNHYTQKSLSLSLG light 2: AIQMTQSPSSLSASVGDRVTITCRASQGIRNDLGWYQQKPGKAPKLLIYAASSLQSGVPSRFSGSGSGTDFTLTISGLQPEDSATYYCLQDYIYYPTFGQGTKVEIKRTVAAPSVFIFPPSDEQLKSGTASVVCLLNNFYPREAKVQWKVDNALQSGNSQESVTEQDSKDSTYSLSSTLTLSKADYEKHKVYACEVTHQGLSSPVTKSFNRGEC | 25 nM | 1.26 nM | 0.587 nM | 0.553 nM | 0.255 nM | 0.0096 nM | 0.876 nM | 0.000329 s⁻¹ | 376000 M⁻¹ s⁻¹ | 0.21 nM | 0.0585 nM
2 | CD38hyb5739/CD28sup x CD3mid_ENLQ DKTHT IgG4 FALA (other, Trispecific antibody; also called BP # 6′) light 1: DIVMTQTPLSLSVTPGQPASISCKSSQSLVHENLQTYLSWYLQKPGQSPQSLIYKVSNRFSGVPDRFSGSGSGTDFTLKISRVEAEDVGVYYCGQGTQYPFTFGSGTKVEIKDKTHTDIQMTQSPSSLSASVGDRVTITCQASQNIYVWLNWYQQKPGKAPKLLIYKASNLHTGVPSRFSGSGSGTDFTLTISSLQPEDIATYYCQQGQTYPYTFGQGTKLEIKDKTHTRTVAAPSVFIFPPSDEQLKSGTASVVCLLNNFYPREAKVQWKVDNALQSGNSQESVTEQDSKDSTYSLSSTLTLSKADYEKHKVYACEVTHQGLSSPVTKSFNRGEC heavy 1: QVQLVQSGAEVVKPGASVKVSCKASGYTFTSYYIHWVRQAPGQGLEWIGSIYPGNVNTNYAQKFQGRATLTVDTSISTAYMELSRLRSDDTAVYYCTRSHYGLDWNFDVWGKGTTVTVSSDKTHTQVQLVESGGGVVQPGRSLRLSCAASGFTFTKAWMHWVRQAPGKQLEWVAQIKDKSNSYATYYADSVKGRFTISRDDSKNTLYLQMNSLRAEDTAVYYCRGVYYALSPFDYWGQGTLVTVSSDKTHTASTKGPSVFPLAPCSRSTSESTAALGCLVKDYFPEPVTVSWNSGALTSGVHTFPAVLQSSGLYSLSSVVTVPSSSLGTKTYTCNVDHKPSNTKVDKRVESKYGPPCPPCPAPEAAGGPSVFLFPPKPKDTLMISRTPEVTCVVVDVSQEDPEVQFNWYVDGVEVHNAKTKPREEQFNSTYRVVSVLTVLHQDWLNGKEYKCKVSNKGLPSSIEKTISKAKGQPREPQVCTLPPSQEEMTKNQVSLSCAVKGFYPSDIAVEWESNGQPENNYKTTPPVLDSDGSFFLVSKLTVDKSRWQEGNVFSCSVMHEALHNHYTQKSLSLSLG heavy 2: QVQLQQSGPELVRPGTSVKVSCKASGYAFTTYLVEWIKQRPGQGLEWIGVINPGSGSTNYNEKFKGKATLTVDRSSTTAYMHLSGLTSDDSAVYFCARYAYGYWGQGTTLTVSSASTKGPSVFPLAPCSRSTSESTAALGCLVKDYFPEPVTVSWNSGALTSGVHTFPAVLQSSGLYSLSSVVTVPSSSLGTKTYTCNVDHKPSNTKVDKRVESKYGPPCPPCPAPEAAGGPSVFLFPPKPKDTLMISRTPEVTCVVVDVSQEDPEVQFNWYVDGVEVHNAKTKPREEQFNSTYRVVSVLTVLHQDWLNGKEYKCKVSNKGLPSSIEKTISKAKGQPREPQVYTLPPCQEEMTKNQVSLWCLVKGFYPSDIAVEWESNGQPENNYKTTPPVLDSDGSFFLYSKLTVDKSRWQEGNVFSCSVMHEALHNHYTQKSLSLSLG light 2: DIVMTQSQKFMSASVGDRVSITCKASQNVGTAVAWYQQQPGHSPKQLIYSASNRYTGVPDRFTGSGAGTDFTLTISNIQSEDLADYFCQQYSTYPFTFGSGTKLEIKRTVAAPSVFIFPPSDEQLKSGTASVVCLLNNFYPREAKVQWKVDNALQSGNSQESVTEQDSKDSTYSLSSTLTLSKADYEKHKVYACEVTHQGLSSPVTKSFNRGEC | 10.8 nM | 0.825 nM | 0.984 nM | 1.63 nM | 0.00911 nM | 0.00274 nM | 5.57 nM | 0.00546 s⁻¹ | 980000 M⁻¹ s⁻¹ | 0.219 nM | 0.061 nM
3 | CD38hhy992/CD28sup x CD3mid_ENLQ DKTHT IgG4 FALA (other, Trispecific antibody; also called BP # 5′) light 1: DIVMTQTPLSLSVTPGQPASISCKSSQSLVHENLQTYLSWYLQKPGQSPQSLIYKVSNRFSGVPDRFSGSGSGTDFTLKISRVEAEDVGVYYCGQGTQYPFTFGSGTKVEIKDKTHTDIQMTQSPSSLSASVGDRVTITCQASQNIYVWLNWYQQKPGKAPKLLIYKASNLHTGVPSRFSGSGSGTDFTLTISSLQPEDIATYYCQQGQTYPYTFGQGTKLEIKDKTHTRTVAAPSVFIFPPSDEQLKSGTASVVCLLNNFYPREAKVQWKVDNALQSGNSQESVTEQDSKDSTYSLSSTLTLSKADYEKHKVYACEVTHQGLSSPVTKSFNRGEC heavy 1: QVQLVQSGAEVVKPGASVKVSCKASGYTFTSYYIHWVRQAPGQGLEWIGSIYPGNVNTNYAQKFQGRATLTVDTSISTAYMELSRLRSDDTAVYYCTRSHYGLDWNFDVWGKGTTVTVSSDKTHTQVQLVESGGGVVQPGRSLRLSCAASGFTFTKAWMHWVRQAPGKQLEWVAQIKDKSNSYATYYADSVKGRFTISRDDSKNTLYLQMNSLRAEDTAVYYCRGVYYALSPFDYWGQGTLVTVSSDKTHTASTKGPSVFPLAPCSRSTSESTAALGCLVKDYFPEPVTVSWNSGALTSGVHTFPAVLQSSGLYSLSSVVTVPSSSLGTKTYTCNVDHKPSNTKVDKRVESKYGPPCPPCPAPEAAGGPSVFLFPPKPKDTLMISRTPEVTCVVVDVSQEDPEVQFNWYVDGVEVHNAKTKPREEQFNSTYRVVSVLTVLHQDWLNGKEYKCKVSNKGLPSSIEKTISKAKGQPREPQVCTLPPSQEEMTKNQVSLSCAVKGFYPSDIAVEWESNGQPENNYKTTPPVLDSDGSFFLVSKLTVDKSRWQEGNVFSCSVMHEALHNHYTQKSLSLSLG heavy 2: QVQLVQSGAEVKKPGASVKVSCKVSGYTLTEFSIHWVRQAPGQGLEWMGGFDPEDGETIYAQKFQGRVIMTEDTSTDTAYMEMNSLRSEDTAIYYCTTGRFFDWFWGQGTLVTVSSASTKGPSVFPLAPCSRSTSESTAALGCLVKDYFPEPVTVSWNSGALTSGVHTFPAVLQSSGLYSLSSVVTVPSSSLGTKTYTCNVDHKPSNTKVDKRVESKYGPPCPPCPAPEAAGGPSVFLFPPKPKDTLMISRTPEVTCVVVDVSQEDPEVQFNWYVDGVEVHNAKTKPREEQFNSTYRVVSVLTVLHQDWLNGKEYKCKVSNKGLPSSIEKTISKAKGQPREPQVYTLPPCQEEMTKNQVSLWCLVKGFYPSDIAVEWESNGQPENNYKTTPPVLDSDGSFFLYSKLTVDKSRWQEGNVFSCSVMHEALHNHYTQKSLSLSLG light 2: EIILTQSPAILSLSPGERATLSCRASQSVISRFLSWYQVKPGLAPRLLIYGASTRATGIPVRFSGSGSGTDFSLTISSLQPEDCAVYYCQQDSNLPITFGQGTRLEIKRTVAAPSVFIFPPSDEQLKSGTASVVCLLNNFYPREAKVQWKVDNALQSGNSQESVTEQDSKDSTYSLSSTLTLSKADYEKHKVYACEVTHQGLSSPVTKSFNRGEC | 33.6 nM | 0.809 nM | 0.229 nM | 0.912 nM | 0.126 nM | 0.0134 nM | 0.129 nM | 0.000175 s⁻¹ | 1.35e+06 M⁻¹ s⁻¹ | 0.133 nM | 0.0573 nM
